Experimental data reported in patent publication US20100159527, “Polypeptides Having Nucleic Acid Binding Activity and Compositions and Methods For Nucleic Acid Amplification” (LIFE TECHNOLOGIES CORPORATION, published 2010).

B1: 42-mer DNA:DNA duplex (oligos 1a+2a) (dsDNA)
DNA 1: CAGACTGGAATTCAAGCGCGAGCTCGAATAAGAGCTACTGTT
DNA 2: AACAGTAGCTCTTATTCGAGCTCGCGCTTGAATTCCAGTCTG
B2: 42-mer DNA:RNA duplex (oligos 1a+2b) (DNA:RNA)
DNA: B1 DNA 1
RNA: AACAGUAGCUCUUAUUCGAGCUCGCGCUUGAAUUCCAGUCUG
B3: 42-mer RNA:RNA duplex (oligos 1b+2b) (dsRNA)
RNA 1: CAGACUGGAAUUCAAGCGCGAGCUCGAAUAAGAGCUACUGUU
RNA 2: B2 RNA

What was measured:
Pae3192 [1] = target: T1, Pae3192 (Pyrobaculum aerophilum); test: EMSA; 150 nM duplex, 0-12 uM protein; 170 mM NaCl, 1 mM CaCl2, 25 mM Tris pH 8.0, 40 C, 1% agarose; conditions: tags: expressed from pET16b with N-terminal 10xHis and Factor Xa site
T1 chain: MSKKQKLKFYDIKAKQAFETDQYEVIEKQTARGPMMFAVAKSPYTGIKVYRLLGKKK
Protocol: (§1) Gel-shift experiments were carried out using 150 nM 42-mer duplex and separate experiments were performed with 0, 1.5, 3, 6 or 12 uM Pae3192 protein. A DNA:DNA duplex was created by annealing DNA oligonucleotides 1a and 2a of Table 1 below. An RNA:RNA duplex was created by annealing RNA oligonucleotides 1b and 2b of Table 1 below. A DNA:RNA duplex was created by annealing DNA oligonucleotide 1a to RNA oligonucleotide 2b of Table 1 below. DNA binding reactions contained 170 mM NaCl, 1 mM CaCl₂ and 25 mM Tris, pH 8.0. Pae3192 was incubated separately with each of the three duplexes for 15 minutes at 40° C. before being run on a 1% agarose gel.

Pae3192 [2] = target: T1, Pae3192; test: EMSA; not shifted up to 12 uM protein; 170 mM NaCl, 1 mM CaCl2, 25 mM Tris pH 8.0, 40 C, RNasin Plus; conditions: tags: expressed from pET16b with N-terminal 10xHis and Factor Xa site
Protocol: as §1

| Binder | binding result (Pae3192 [1]) | binding result (Pae3192 [2]) |
| --- | --- | --- |
| B1 | binds |  |
| B2 | binds |  |
| B3 |  | no binding |
